Drawing on article PMC10346447, this text covers FRET efficiency E and donor (GFP) mean fluorescence lifetime τ with the acceptor for one substance.

This experiment addresses AvrLm10B_like2‐RFP (Leptosphaeria maculans 'brassicae'). Description: FRET or BRET.

AvrLm10A_like2‐GFP (natural protein) registered an FRET efficiency E of 32.1% and a donor (GFP) mean fluorescence lifetime τ with the acceptor of 1.89 ns.
